Assay results from patent publication US20170247475A1 (Boehringer Ingelheim, published 2017).

Assays:
hAng2 [1] = target: T1, hAng2; test: competition ELISA, blocking of hAng2 binding to hTie2
T1 construct: also called human Ang2
T1 chain: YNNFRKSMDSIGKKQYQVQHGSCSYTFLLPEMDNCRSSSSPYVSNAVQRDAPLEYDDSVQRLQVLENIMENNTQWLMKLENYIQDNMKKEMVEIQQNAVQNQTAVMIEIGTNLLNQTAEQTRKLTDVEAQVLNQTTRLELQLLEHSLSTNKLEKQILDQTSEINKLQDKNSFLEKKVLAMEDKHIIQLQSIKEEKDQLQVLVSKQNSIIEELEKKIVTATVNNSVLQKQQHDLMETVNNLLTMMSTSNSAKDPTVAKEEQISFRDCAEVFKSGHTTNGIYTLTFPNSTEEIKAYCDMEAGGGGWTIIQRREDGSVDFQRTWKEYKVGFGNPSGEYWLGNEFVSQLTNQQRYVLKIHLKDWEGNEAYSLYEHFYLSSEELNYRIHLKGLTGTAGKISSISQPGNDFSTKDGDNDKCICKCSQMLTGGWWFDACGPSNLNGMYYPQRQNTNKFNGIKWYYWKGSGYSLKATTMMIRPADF

mAng2 [2] = target: T2, mAng2; test: competition ELISA, blocking of mAng2 binding to mTie2
T2 construct: also called mouse Ang2
T2 chain: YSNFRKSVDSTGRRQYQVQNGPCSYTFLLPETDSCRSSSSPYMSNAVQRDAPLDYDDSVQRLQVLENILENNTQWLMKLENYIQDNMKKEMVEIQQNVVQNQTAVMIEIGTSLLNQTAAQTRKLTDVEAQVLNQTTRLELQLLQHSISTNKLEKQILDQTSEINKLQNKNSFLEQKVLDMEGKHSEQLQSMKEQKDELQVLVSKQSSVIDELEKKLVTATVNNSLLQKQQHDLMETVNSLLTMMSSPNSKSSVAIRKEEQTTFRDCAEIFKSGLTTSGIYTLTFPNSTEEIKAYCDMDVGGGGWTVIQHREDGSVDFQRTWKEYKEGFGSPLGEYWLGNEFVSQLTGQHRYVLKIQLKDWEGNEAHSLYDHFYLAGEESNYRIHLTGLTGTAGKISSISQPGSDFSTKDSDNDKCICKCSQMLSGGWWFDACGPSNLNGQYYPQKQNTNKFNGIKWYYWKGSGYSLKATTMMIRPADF

cAng2 [3] = target: T3, cAng2 (cynomolgus monkey); test: competition ELISA, blocking of cAng2 binding to cTie2
T3 construct: also called cyno Ang2

hAng2 [4] = target: T4, hAng2; test: cell-based or functional assay
T4 chain: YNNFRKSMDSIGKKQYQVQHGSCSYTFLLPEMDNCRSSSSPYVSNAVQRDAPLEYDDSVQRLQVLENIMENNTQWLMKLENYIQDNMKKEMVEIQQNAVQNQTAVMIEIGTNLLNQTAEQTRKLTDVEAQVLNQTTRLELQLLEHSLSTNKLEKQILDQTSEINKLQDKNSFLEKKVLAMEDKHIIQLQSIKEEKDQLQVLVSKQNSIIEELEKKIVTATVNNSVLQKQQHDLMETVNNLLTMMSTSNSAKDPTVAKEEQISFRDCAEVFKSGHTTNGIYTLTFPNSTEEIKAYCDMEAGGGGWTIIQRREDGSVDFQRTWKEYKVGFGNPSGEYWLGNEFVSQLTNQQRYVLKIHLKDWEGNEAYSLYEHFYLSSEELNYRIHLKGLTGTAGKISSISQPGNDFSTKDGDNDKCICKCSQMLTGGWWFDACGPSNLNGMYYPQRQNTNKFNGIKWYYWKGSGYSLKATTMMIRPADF

hAng2 [5] = target: T4, hAng2; test: competition ELISA, blocking of hAng2 binding to hTie2-Fc
mAng2 [6] = target: T5, mAng2; test: competition ELISA, blocking of mAng2 binding to mTie2-Fc
T5 construct: may be the same protein as m22 (mouse Ang2-FLD); also called mouse Ang2
T5 chain: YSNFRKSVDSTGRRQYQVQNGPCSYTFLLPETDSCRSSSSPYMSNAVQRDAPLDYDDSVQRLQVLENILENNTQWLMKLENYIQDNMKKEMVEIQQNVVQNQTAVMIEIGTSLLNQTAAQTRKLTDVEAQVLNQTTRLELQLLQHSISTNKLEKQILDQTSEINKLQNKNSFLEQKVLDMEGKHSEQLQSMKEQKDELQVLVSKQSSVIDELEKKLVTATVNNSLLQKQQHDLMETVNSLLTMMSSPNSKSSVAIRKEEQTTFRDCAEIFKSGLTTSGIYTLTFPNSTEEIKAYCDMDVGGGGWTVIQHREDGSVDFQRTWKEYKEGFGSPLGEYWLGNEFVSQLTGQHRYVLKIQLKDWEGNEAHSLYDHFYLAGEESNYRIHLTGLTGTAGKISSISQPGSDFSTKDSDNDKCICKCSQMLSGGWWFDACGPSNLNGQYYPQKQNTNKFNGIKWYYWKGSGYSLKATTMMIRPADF

cAng2 [7] = target: T6, cAng2 (cynomolgus monkey); test: competition ELISA, blocking of cAng2 binding to cTie2-Fc
T6 construct: may be the same protein as m21 (cyno Ang2-FLD); also called cyno Ang2

hAng2 [8] = target: T1, hAng2; test: competition ELISA, blocking of hAng2 binding to hTie2
mAng2 [9] = target: T2, mAng2; test: competition ELISA, blocking of mAng2 binding to mTie2
cAng2 [10] = target: T3, cAng2; test: competition ELISA, blocking of cAng2 binding to cTie2; remark: listed apart in the source

B1: ANGBII00003 (VHH)
bivalent VHH: EVQLVESGGGLVQVGDSLRLSCAASGRTFSTYLMVGWFRQAPGKEREFAAGIWSSGDTAYADSVRGRFTISRDNAKNTVYLQMNSLKTEDTAVYYCAGSYDGNYYIPGFYKDWGQGTLVTVSSGGGGSGGGSEVQLVESGGGLVQVGDSLRLSCAASGRTFSTYLMVGWFRQAPGKEREFAAGIWSSGDTAYADSVRGRFTISRDNAKNTVYLQMNSLKTEDTAVYYCAGSYDGNYYIPGFYKDWGQGTLVTVSS
notes: homodimeric anti-Ang2 VHH; also called 11B07-9gs-11B07
IC50 (read off the curve) (hAng2 [1]): ~30 pM
IC50 (read off the curve) (mAng2 [2]): ~40 pM
IC50 (read off the curve) (cAng2 [3]): ~30 pM

B2: 00956 (VHH)
VHH: EVQLVESGGGLVQPGGSLRLSCAASGFTLDDYAIGWFRQAPGKEREGVSAIRSSGGSTYYADSVKGRFTISSDNSKNTVYLQMNSLRPEDTAVYYCAAVPAGRLRFGEQWYPLYEYDAWGQGTLVTVSS
IC50 (read off the curve), hAng2 mediated HUVEC survival (hAng2 [4]): ~6000 pM
IC50 (read off the curve) (hAng2 [5]): ~1000 pM
IC50 (read off the curve) (mAng2 [6]): ~3000 pM
IC50 (read off the curve) (cAng2 [7]): ~2000 pM

B3: ANGBII00004 (VHH)
bivalent VHH: EVQLVESGGGLVQAGGSLRLSCAASGFTLDDYAIGWFRQAPGKEREGVSSIRDNDGSTYYADSVKGRFTISSDNDKNTVYLQMNSLKPEDTAVYYCAAVPAGRLRFGEQWYPLYEYDAWGQGTLVTVSSGGGGSGGGSEVQLVESGGGLVQAGGSLRLSCAASGFTLDDYAIGWFRQAPGKEREGVSSIRDNDGSTYYADSVKGRFTISSDNDKNTVYLQMNSLKPEDTAVYYCAAVPAGRLRFGEQWYPLYEYDAWGQGTLVTVSS
notes: homodimeric anti-Ang2 VHH; also called 00027-9gs-00027
IC50 (read off the curve) (hAng2 [8]): ~10 pM
IC50 (read off the curve) (mAng2 [9]): ~30 pM
IC50 (read off the curve) (cAng2 [10]): ~40 pM
